Patent US20040014194A1, “Beta-secretase crystals and methods for preparing and using the same” (Schering Corporation, priority 2002, published 2004)

B1: proBACE: immature, soluble human β-secretase with amino-terminal propeptide, expressed in Sf9 insect cells (protein, listed as Homo sapiens)
chain: TQHGIRLPLRSGLGGAPLGLRLPRETDEEPEEPGRRGSFVEMVDNLRGKSGQGYYVEMTVGSPPQTLNILVDTGSSNFAVGAAPHPFLHRYYQRQLSSTYRDLRKGVYVPYTQGKWEGELGTDLVSIPHGPNVTVRANIAAITESDKFFINGSNWEGILGLAYAEIARPDDSLEPFFDSLVKQTHVPNLFSLQLCGAGFPLNQSEVLASVGGSMIIGGIDHSLYTGSLWYTPIRREWYYEVIIVRVEINGQDLKMDCKEYNYDKSIVDSGTTNLRLPKKVFEAAVKSIKAASSTEKFPDGFWLGEQLVCWQAGTTPWNIFPVISLYLMGEVTNQSFRITILPQQYLRPVEDVATSQDDCYKFAISQSSTGTVMGAVIMEGFYVVFDRARKRIGFAVSACHVHDEFRTAAVEGPFVTLDMEDCGYNIPQTDESTLE
B2: mature BACE: glycosylated, soluble fragment of mature human BACE, autoprocessed from proBACE at pH 4.0 (protein, listed as Homo sapiens)
chain: ETDEEPEEPGRRGSFVEMVDNLRGKSGQGYYVEMTVGSPPQTLNILVDTGSSNFAVGAAPHPFLHRYYQRQLSSTYRDLRKGVYVPYTQGKWEGELGTDLVSIPHGPNVTVRANIAAITESDKFFINGSNWEGILGLAYAEIARPDDSLEPFFDSLVKQTHVPNLFSLQLCGAGFPLNQSEVLASVGGSMIIGGIDHSLYTGSLWYTPIRREWYYEVIIVRVEINGQDLKMDCKEYNYDKSIVDSGTTNLRLPKKVFEAAVKSIKAASSTEKFPDGFWLGEQLVCWQAGTTPWNIFPVISLYLMGEVTNQSFRITILPQQYLRPVEDVATSQDDCYKFAISQSSTGTVMGAVIMEGFYVVFDRARKRIGFAVSACHVHDEFRTAAVEGPFVTLDMEDCGYNIPQTDESTLE
modifications: glycosylated
notes: glycosylated, soluble fragment of mature human BACE, autoprocessed from proBACE at pH 4.0

Biological target: T1, β-secretase purified from Sf-9 cells (Homo sapiens, UniProt P56817)
T1 construct: made in house; host or cells: Sf9 insect cells, baculovirus (Bac-to-Bac), secreted into the medium
Assay: HPLC assay of β-secretase enzymatic activity with a peptide substrate derived from "Swedish" amyloid protein peptide
Type: biochemical
Settings: proBACE compared with mature BACE
Method: To assess the functionality of β-secretase purified from Sf-9 cells, an HPLC assay was developed using a peptide substrate derived from the sequence of “Swedish” amyloid protein peptide (Dreyer et al., (1994) Eur J. Biochem 224: 265-271). In these assays, ProBACE (SEQ ID NO: 2) and mature BACE (SEQ ID NO: 1) were tested.

Molecule | enzymatic activity with substrate Biotin-KSEVNL*DAEFRK-Fluorescein
B1 | equivalent
B2 | equivalent
